Assay results reported in publication PMC10171809.

Biological target: HEXIM1 (UniProt O94992)
Assay: co-immunoprecipitation
Settings: reference: wild type; sites S43

METTL3 (from UniProt Q86U44) S43A
binding against the reference: stronger
